{"source": "patent US10196657B2", "about": "“Methods of producing 7-carbon chemicals via methyl-ester shielded carbon chain elongation” (INVISTA North America S.á r.l., priority 2012, dated 2019)", "molecules": {"B1": {"name": "SEQ ID NO. 17: Escherichia coli pimelyl-[acp] methyl ester esterase, GenBank Accession No. AAC76437.1 (protein, listed as Escherichia coli)", "chain": "MNNIWWQTKGQGNVHLVLLHGWGLNAEVWRCIDEELSSHFTLHLVDLPGFGRSRGFGALSLADMAEAVLQQAPDKAIWLGWSLGGLVASQIALTHPERVQALVTVASSPCFSARDEWPGIKPDVLAGFQQQLSDDFQRTVERFLALQTMGTETARQDARALKKTVLALPMPEVDVLNGGLEILKTVDLRQPLQNVSMPFLRLYGYLDGLVPRKVVPMLDKLWPHSESYIFAKAAHAPFISHPAEFCHLLVALKQRV"}, "B2": {"name": "gene product of tesB: Escherichia coli thioesterase encoded by tesB, GenBank Accession No. AAA24665.1 (protein, listed as Escherichia coli)", "chain": "MSQALKNLLTLLNLEKIEEGLFRGQSEDLGLRQVFGGQVVGQALYAAKETVPEERLVHSFHSYFLRPGDSKKPIIYDVETLRDGNSFSARRVAAIQNGKPIFYMTASFQAPEAGFEHQKTMPSAPAPDGLPSETQIAQSLAHLLPPVLKDKFICDRPLEVRPVEFHNPLKGHVAEPHRQVWIRANGSVPDDLRVHQYLLGYASDLNFLPVALQPHGIGFLEPGIQIATIDHSMWFHRPFNLNEWLLYSVESTSASSARGFVRGEFYTQDGVLVASTVQEGVMRNHN"}, "B3": {"name": "SEQ ID NO 7: Segniliparus rotundus carboxylate reductase, Genbank Accession No. ADG98140.1 (protein, listed as Segniliparus rotundus)", "chain": "MTQSHTQGPQASAAHSRLARRAAELLATDPQAAATLPDPEVVRQATRPGLRLAERVDAILSGYADRPALGQRSFQTVKDPITGRSSVELLPTFDTITYRELRERATAIASDLAHHPQAPAKPGDFLASIGFISVDYVAIDIAGVFAGLTAVPLQTGATLATLTAITAETAPTLFAASIEHLPTAVDAVLATPSVRRLLVFDYRAGSDEDREAVEAAKRKIADAGSSVLVDVLDEVIARGKSAPKAPLPPATDAGDDSLSLLIYTSGSTGTPKGAMYPERNVAHFWGGVWAAAFDEDAAPPVPAINITFLPLSHVASRLSLMPTLARGGLMHFVAKSDLSTLFEDLKLARPTNLFLVPRVVEMLYQHYQSELDRRGVQDGTREAEAVKDDLRTGLLGGRILTAGFGSAPLSAELAGFIESLLQIHLVDGYGSTEAGPVWRDGYLVKPPVTDYKLIDVPELGYFSTDSPHPRGELAIKTQTILPGYYKRPETTAEVFDEDGFYLTGDVVAQIGPEQFAYVDRRKNVLKLSQGEFVTLAKLEAAYSSSPLVRQLFVYGSSERSYLLAVIVPTPDALKKFGVGEAAKAALGESLQKIARDEGLQSYEVPRDFIIETDPFTVENGLLSDARKSLRPKLKEHYGERLEAMYKELADGQANELRDIRRGVQQRPTLETVRRAAAAMLGASAAEIKPDAHFTDLGGDSLSALTFSNFLHDLFEVDVPVGVIVSAANTLGSVAEHIDAQLAGGRARPTFATVHGKGSTTIKASDLTLDKFIDEQTLEAAKHLPKPADPPRTVLLTGANGWLGRFLALEWLERLAPAGGKLITIVRGKDAAQAKARLDAAYESGDPKLAGHYQDLAATTLEVLAGDFSEPRLGLDEATWNRLADEVDFISHPGALVNHVLPYNQLFGPNVAGVAEIIKLAITTRIKPVTYLSTVAVAAGVEPSALDEDGDIRTVSAERSVDEGYANGYGNSKWGGEVLLREAHDRTGLPVRVFRSDMILAHQKYTGQVNATDQFTRLVQSLLATGLAPKSFYELDAQGNRQRAHYDGIPVDFTAESITTLGGDGLEGYRSYNVFNPHRDGVGLDEFVDWLIEAGHPITRIDDYDQWLSRFETSLRGLPESKRQASVLPLLHAFARPGPAVDGSPFRNTVFRTDVQKAKIGAEHDIPHLGKALVLKYADDIKQLGLL"}}, "assay_type_in_all_cases": "biochemical", "key": {"[1]": {"test": "Pimeloyl-[acp] methyl ester methylesterase activity assay, pimeloyl-CoA methyl ester to pimeloyl-CoA (LC-MS)", "details": "10 μM enzyme, 5 mM pimeloyl-CoA methyl ester, pH 7.0, 30° C., 1 h; FIG. 20", "procedure": "A nucleotide sequence encoding a C-terminal His-tag was added to the gene from Escherichia coli encoding the pimeloyl-[acp] methylester methylesterase of SEQ ID NO: 17 (see FIG. 7H) such that a C-terminal HIS tagged pimeloyl-[acp] methyl ester methylesterase could be produced. The resulting modified gene was cloned into a pET28b+ expression vector under control of the T7 promoter and the expression vector was transformed into a BL21[DE3] E. coli host. The resulting recombinant E. coli strain was cultivated at 37° C. in a 500 mL shake flask culture containing 100 mL LB media and antibiotic selection pressure, with shaking at 230 rpm. Each culture was induced overnight at 18° C. using 0.3 mM IPTG.\nThe pellet from each induced shake flask culture was harvested via centrifugation. Each pellet was resuspended and lysed via sonication. The cell debris was separated from the supernatant via centrifugation. […]\nEnzyme activity assays converting pimeloyl-CoA methyl ester to pimeloyl-CoA were performed in triplicate in a buffer composed of a final concentration of 25 mM Tris.HCl buffer (pH=7.0) and 5 [mM] pimeloyl-CoA methyl ester. […] The formation of pimeloyl-CoA was quantified via LC-MS."}, "[2]": {"test": "Thioesterase enzyme activity assay, pimeloyl-CoA to pimelate (release of CoA, Ellman's reagent)", "details": "667 μM pimeloyl-CoA, 0.8 μM enzyme, pH 7.4, 37° C., 20 min; relative to empty vector control; FIG. 8", "procedure": "A sequence encoding an N-terminal His tag was added to the tesB gene from Escherichia coli that encodes a thioesterase (SEQ ID NO 1, see FIG. 7A), such that an N-terminal HIS tagged thioesterase could be produced. The modified tesB gene was cloned into a pET15b expression vector under control of the T7 promoter. The expression vector was transformed into a BL21[DE3] E. coli host. The resulting recombinant E. coli strain was cultivated at 37° C. in a 500 mL shake flask culture containing 50 mL Luria Broth (LB) media and antibiotic selection pressure, with shaking at 230 rpm. The culture was induced overnight at 17° C. using 0.5 mM IPTG.\nThe pellet from the induced shake flask culture was harvested via centrifugation. The pellet was resuspended and lysed in Y-Per™ solution (ThermoScientific, Rockford, Ill.). The cell debris was separated from the supernatant via centrifugation. […]\nThe enzyme activity assay was performed in triplicate in a buffer composed of 50 mM phosphate buffer (pH=7.4), 0.1 mM Ellman's reagent, and 667 μM of pimeloyl-CoA (as substrate). […] The release of Coenzyme A was monitored by absorbance at 412 nm. The absorbance associated with the substrate only control, which contained boiled enzyme, was subtracted from the active enzyme assay absorbance and compared to the empty vector control."}, "[3]": {"test": "Carboxylate reductase activity assay, N7-acetyl-7-aminoheptanoate to N7-acetyl-7-aminoheptanal", "details": "purified enzyme enhanced by sfp gene product, 2 mM substrate, room temperature, 20 min; against empty vector control; FIG. 12", "procedure": "The activity of each of the N-terminal His-tagged carboxylate reductases of SEQ ID NOs: 3, 6, and 7 (see Examples 4, and FIGS. 7B, 7E, and 7F) for converting N7-acetyl-7-aminoheptanoate to N7-acetyl-7-aminoheptanal was assayed in triplicate in a buffer composed of a final concentration of 50 mM HEPES buffer (pH=7.5), 2 mM N7-acetyl-7-aminoheptanoate, 10 mM MgCl2, 1 mM ATP, and 1 mM NADPH. The assays were initiated by adding purified carboxylate reductase and phosphopantetheine transferase or the empty vector control to the assay buffer containing the N7-acetyl-7-aminoheptanoate then incubated at room temperature for 20 min. The consumption of NADPH was monitored by absorbance at 340 nm."}, "[4]": {"test": "Carboxylate reductase activity assay, pimelate to pimelate semialdehyde (NADPH consumption)", "details": "purified enzyme enhanced by sfp gene product, 2 mM pimelate, room temperature, 20 min; against empty vector control; FIG. 10", "procedure": "A sequence encoding a HIS-tag was added to the genes from Segniliparus rugosus and Segniliparus rotundus that encode the carboxylate reductases of SEQ ID NOs: 4 and 7, respectively (see FIGS. 7C and 7F), such that N-terminal HIS tagged carboxylate reductases could be produced. Each of the modified genes was cloned into a pET Duet expression vector along with a sfp gene encoding a HIS-tagged phosphopantetheine transferase from Bacillus subtilis, both under the T7 promoter. Each expression vector was transformed into a BL21[DE3] E. coli host and the resulting recombinant E. coli strains were cultivated at 37° C. in a 250 mL shake flask culture containing 50 mL LB media and antibiotic selection pressure, with shaking at 230 rpm. Each culture was induced overnight at 37° C. using an auto-induction media.\nThe pellet from each induced shake flask culture was harvested via centrifugation. Each pellet was resuspended and lysed via sonication, and the cell debris was separated from the supernatant via centrifugation. […]\nEnzyme activity assays (i.e., from pimelate to pimelate semialdehyde) were performed in triplicate in a buffer composed of a final concentration of 50 mM HEPES buffer (pH=7.5), 2 mM pimelate, 10 mM MgCl2, 1 mM ATP and 1 mM NADPH. […] The consumption of NADPH was monitored by absorbance at 340 nm."}, "[5]": {"test": "Carboxylate reductase activity assay, pimelate semialdehyde to heptanedial", "details": "purified enzyme enhanced by sfp gene product, 2 mM pimelate semialdehyde, room temperature, 20 min; against empty vector control; FIG. 13", "procedure": "The N-terminal His-tagged carboxylate reductase of SEQ ID NO 7 (see Example 4 and FIG. 7F) was assayed using pimelate semialdehyde as substrate. The enzyme activity assay was performed in triplicate in a buffer composed of a final concentration of 50 mM HEPES buffer (pH=7.5), 2 mM pimelate semialdehyde, 10 mM MgCl2, 1 mM ATP and 1 mM NADPH. The enzyme activity assay reaction was initiated by adding purified carboxylate reductase and phosphopantetheine transferase or the empty vector control to the assay buffer containing the pimelate semialdehyde and then incubated at room temperature for 20 min. The consumption of NADPH was monitored by absorbance at 340 nm."}}}
{"molecule": "B1", "values": [{"measurement": "acceptance of pimeloyl-CoA methyl ester as substrate, forming pimeloyl-CoA (LC-MS)", "setting": "[1]", "value": "accepted pimeloyl-CoA methyl ester as substrate"}]}
{"molecule": "B2", "values": [{"measurement": "acceptance of pimeloyl-CoA as substrate (release of Coenzyme A, absorbance at 412 nm)", "setting": "[2]", "value": "accepted pimeloyl-CoA as substrate"}]}
{"molecule": "B3", "values": [{"measurement": "acceptance of N7-acetyl-7-aminoheptanoate as substrate (NADPH consumption, absorbance at 340 nm)", "setting": "[3]", "value": "accepted N7-acetyl-7-aminoheptanoate as substrate"}, {"measurement": "acceptance of pimelate as substrate (NADPH consumption, absorbance at 340 nm)", "setting": "[4]", "value": "accepted pimelate as substrate"}, {"measurement": "acceptance of pimelate semialdehyde as substrate, forming heptanedial (NADPH consumption, absorbance at 340 nm)", "setting": "[5]", "value": "accepted pimelate semialdehyde as substrate"}]}
